Our source for the OD450nm值 values is CN104744590A.

Test [1] concerns the target 重组血凝素蛋白 H6N1(A/Califomia/HKWF115/2007) (Influenza A virus H6N1 (California/HKWF115/2007 as printed)).
Test [2] deals with 重组血凝素蛋白 H1N2(A/swine/Guangxi/13/2006) (Influenza A virus H1N2 (A/swine/Guangxi/13/2006)).
Test [3] has as its target 重组血凝素蛋白 H1N1(A/Ohio/UR06-0091/2007) (Influenza A virus H1N1 (A/Ohio/UR06-0091/2007)).
The target in test [4] is 重组血凝素蛋白 H1N1(A/Puerto Rico/8/1934) (Influenza A virus H1N1 (A/Puerto Rico/8/1934)) (UniProt P03452).
Test [5] concerns the target 重组血凝素蛋白 H1N1(A/California/7/2009) (Influenza A virus H1N1 (A/California/7/2009)).
The target of test [6] is 重组血凝素蛋白 H2N2(A/Canada/720/2005) (Influenza A virus H2N2 (A/Canada/720/2005)).
Test [7] addresses 重组血凝素蛋白 H1N1(A/New Caledonia/20/1999) (Influenza A virus H1N1 (A/New Caledonia/20/1999)).
The target in test [8] is 重组血凝素蛋白 H1N1(A/California/4/2009) (Influenza A virus H1N1 (A/California/4/2009)).
Test [9] concerns the target 重组血凝素蛋白 H1N3(A/duck/NZL/160/1976) (Influenza A virus H1N3 (A/duck/NZL/160/1976)).

B1: 抗甲型H1N1猪流感病毒血凝素蛋白鼠单克隆抗体 (antibody, V domains shown)
VH: EIQLQQTGPELVKPGAPVKISCKASGYSLTDYIILWVKQSHGKSLEWIGNINPYFGTTSYNLKFKDKATLTVDKSSSTAYMELNSLTSEDSAVYYCARNDNYAMDYWGQGTSVTVSS
VL: QIVLTQSPAIMSASLGERVTMTCTASSSVSSTYLHWYQQKPGSSPKLWIYSTSNLASGVPARFSGSGSGTSYSLTISSMEAEDAATYYCHQYHRSPYTFGGGTKLEIKR
B1: the OD450nm值 in test [1] was determined as 0.003 OD450nm; in test [2] it was 0.004 OD450nm; in test [3], 0.015 OD450nm; in [4], 0.005 OD450nm; in [5], 1.88 OD450nm; in [6], 0.002 OD450nm. Moreover, the OD450nm值 was found to be 0.001 OD450nm in [7], 2.01 OD450nm in test [8] and 0.001 OD450nm in test [9].
